In the domain aggregation screens of Martell et al. (2025):

Test: soluble fraction after stress (log2 fold change); higher = more stays soluble; pooled small domains, quantitative proteomics
Conditions: stress: 75 degC
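Also: 20 min heating vs room temperature control held 20 min.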

Sequence | soluble fraction (log2)
HMGMESFWNRVANLLNTSTVVELAQILDVKRSTLSSWIHSDRRPPMEVLLKITRLTGVDIHRLE | -2.59
HMGMETQLSPKEKSIYTIIQNRPNIQSGEVSEKLAIPLPTVKRILSDLINKGLIEKQGSGRNVSYTI | 0.338
HMGMFNENLRFLRQKRQMSQQAFASILGIPRTTYSEYEKGNTEPNLKLLIRLSELLDVSLDNLISDDLTHN | -2.82
HMGMKTSQKLARQREIVRLIRAQTIRTQAELADALRERAFPVSQPTLSKDIAELGLIKVPLPDSGYRYQLP | -1.73
HMGMNKEHFIIELKIYLKALNPKDQAIILAKYKALFDARVAEGETEEQVAKSLGKPRVIAEEILKEQGIE | -3.26
HMGMSMNEFLNNRLEQLAVEAVDKSSLGEEIFFYAEPATINLFKDAVDEDEYKVVFPVLKSIIEVEQKLSR | -1.24
HMGMTAPIPGVVLKVSVLPGQKVERGDELLTIEAMKMFNVMRSPSSGTIATVHIKDGDRVVQGQPLVTFA | -0.555
HMGMTTSILDDVIGMGPKRKKALLKAFGSFGALRNATLEEIKQTHTVPEQVAEDVYAVLVQYNSKSE | -0.681
HMGMVKLNEEYLEKVKKHRKELHITQLQISKKLGWSLSRYQRFESGFYKEIEDDAPKKIKEEFGIDYSLL | -0.726
HMGNGALLTLTVKERQVIQLVAEGKSNKQIARDLNVTPETIKSHMKNIFAKLKVDNRAQAAVMVQQ | -2.16
HMGNGDTNERIATLMQILAKQESIINQYGLENPVVSPQMYVRTLKKVVELSGFKDASSYFADIPDGWKA | 0.0405
HMGNIADARRDASYVFLIGEWAKSSNLTEKKLAGLIQSNHLDIKYGITVTDVIADIRKYKNDPTYNPF | -2.19
HMGNIKVPSVMGMTLEGAEKVAKDNGAVIEVLEYKESTEEDGTIIEQSPKADMTVATLEKISVVISGK | 0.161
HMGNIYKALLGKLEKQLGFLPEGTKLPPEQELAEKFGVSKPTLRRALAELAVRGIIVKQNGIGSVVAGS | -0.55
HMGNKKLVLKLSKKLIKIPSFLNIYSVKLTKNGRELEINLDKSQNEAIDIINLIKKNNISFLEFDIKKR | -1.43
HMGNLIIFYDAQTGSAPLLKAVKTSGATLVYEYKNLHGIAIRPSSKTSIEDAIAYFKKVNGVLSVE | -3.77
HMGNPSGLPLPRFASTRSEPINVRVGPGQKYDIAWTYLKSGIPVEIIQEFDTWRKIRDFDGAEGWIHQNLL | -1.22
HMGNSRNDQDLQTQIIKILAEGPASSRTLIETLTIEDEAALLKTLKRLLMNKKISLTPSNLYKL | -1.06
HMGPAAGVVEKYNLAHLSTGEMIRKEIAEGSDFGKMAAGIINKGELLSDEFVVALIENSIEHHKNVDGFLF | -0.195
HMGPAVGAIRVEGNKRVEPETVRTYLTFNVGDPYDLAKVDESLKALFATGLFQDVRIRREGNTVVIVVVEN | -0.701
HMGPAYQTQRQEAFAALSEIAAKNPQLMQVAGDLVFRAADFPMADELADRLAKTLPPQLQDKKGQP | -0.455
HMGPEISEDAKVVFDRLKNHDEILLNNFKSEFDLSNKKWDKIIKELRGNDLISIIKSEDGNLFIKP | -0.125
HMGPELGENEKLIFDIIKKESKMELGILKAQVDLSNKKWDKALKGLATHGLTKVNKTDDGLFIELI | -0.555
HMGPIITKTYNLSYATARDVNDIIKSKKSARGDIVIDTRTNSLIVSDVQEKIDLIDEIVATL | -0.368
HMGPLSDRSVADWLLRLGLADTANNRLLLQVMHAAGLPLERTAVRAMRETAAGRPEGTDAREWLQAAAAAQ | -0.571
HMGPNSVPDLRGKSLRQAMKMVNDLELKAIFEGEGIVVGQVPAPGKPVPETKILKITLSLEPY | -1.58

Sequence | soluble fraction (log2)
HMGPPAVGSKLQDARKAQQLSLDELSKRAGVSKSMLSEVERNQANPTVGVLWRLATALGISLTDLLG | -1.11
HMGPPLISLDDGLAKGFGVGVGDTLTINILGRRITATIASLREIDWQSLRFDFAVVLSPGVLEGA | 0.237
HMGPRKAGSEATRQKILDAAEILFAERGFHSVSVRDITTEAGVDVALINYHFGSKQLLFETVFMRR | -0.32
HMGPRPLPAEFTHPSLRALLALGTTRGGVTSADVKTALEAASVPAGRRAAVLRALDDNGIEVHTEP | -0.0155
HMGPSEVTLDNFVGKNYTDVVNDTSYQFTFKKEEKSDQTHAAGIIIAQSPKKGIKVKSNSTVTLTVSTG | 0.359
HMGPVDFYQMFISELQHLAEKPVTVDALIESTQLHKSQLTEWLKRAVDDGVVKKLNRPARFQVKNK | 0.0567
HMGPVRDLGLLESAAHRPTTALWGRDVYATIEKKAAALLDSLVRDRPLADGNKRLGWLAALV | 0.291
HMGPYGAGSAAPAEDGSGPEGWTVKGNAKSMLYHTEGSPYYGRTNADVWFRDEESAEAAGFRRWDRK | -0.0366
HMGQAELPYSEFLREVNNGQVKSVIIEGSEITGFYKTSGTSFNVIAPDDPKLVERLMAQGVEVRAQPA | 0.144
HMGQDLEAFLLKAVGQLDQGDGVTLDALLKVAVSNGGFVREVAEAKLDDMLDAGTLDEPRFGWFRVGAT | -0.41
HMGQDLSYYIKIVQNQQPVDPLTGEPKVLDYGEVIRQAQILQMLDTGDLDRDKAIGQLSMKDAL | 0.292
HMGQELRFVIQDHEAGIRLDHYLTQQVEGYSRSHLRKLMDQGLITVDGSYRKAGYRLNVGDVIHVVIPPTR | -0.813
HMGQELTPVERTALDIAARDGKVSTRILAQEAGIGLRTASKTLAALAERGLLTWHGTSRRDPQQHYTS | -0.0688
HMGQISDESVLKEMVVQLIADNPKEVASYLGGKETLLQWFMGQVARATKGKADPQAVKQLLLDEFEKLK | 0.0498
HMGQKETIVDLLKTNGTMTQLALAEAIYGDKNHGPNIYSVLMGRVNSGAVLRTGSQPAYYSLSG | 0.209
HMGQKMLTIELQEKVNKMPDNLASYDLKLSADGMSLIYKYSLKSERTGITALLQELKNAGLVMRDLKTEQ | -0.641
HMGQLSDREALTVLAREALVELPRAAGDYRNGRTAALQSLVGRVMRKTAGRGNPALLQEIFRSLL | -0.542
HMGQLVVHQIKGEASRLDKFLVVNIPKYSRSVWREMINNGSVQVNGRVVKPHLLVKEGDIITWSS | -1.4
HMGQLVYPAGVYDVNKSYITDSNSAPYVLDKTDNNYYVLNTQMTWKGTEQDNKTPSQSYEESGGSVWLLFD | -0.118
HMGQPAVSSRDVAEQFGKEHRNVIQSIKNLIAENSALTFMFIEDTYTAGTGKKYPMYYMNRDGFTLLA | 0.337
HMGQPGNWTSYVFKNSDTEPAKPTSSGPIPSGWNDAPTGVGIWWMSKATIDASTGKAGSWSTPIRVTGED | -0.0861
HMGQSKNERMLELVELLNKASRSYYQDAQEIMSNYEYDRLYDELQNLEKELGITLSNSPTVN | -0.122
HMGQVSDETGLARVVDALLAAHPDEVAKYRAGKTSLLGWFMGQVMKETRGQANPDLARALVLERLE | -0.342
HMGQYSTTLDKIENSLFGFTYSNEAENTRINRIENKVYGKTSTSQTSTRIAKLKKDLSVDEMG | 0.111
HMGREVVVPNLAGIEKEVALDLLKKNRLGGMITGTRFSSDFPAGQVIQQMPEAGSRVKVGKQVKLVLSEG | 0.207
HMGRGSEDEQMRGLAVILAEQKQIMQTLGVENEVVKPEQYINTLKRMAELNGFKDTDQFFSIPQ | 0.26

Sequence | soluble fraction (log2)
HMGRHSPLSIEQKEQLKTEIVALQQQRGGGRVTAVNIAELIQQKFNVVYNPNSLYKLLKQIGMSWV | -1.94
HMGRKEIIVPNLLGKYAIEAGTILKNAGLLEGQAREENSDTYPAGQIMDQFPKANTPANENDKVDYVVSI | ≥ 1.04
HMGRLEVDLVVPYDKYEAMNVIRAEGRILKEDHQGDGAHLKIQINETALWKLKRMLGEGYGQ | -0.13
HMGRLPMNIVRAIVEHLDRHASYSEINRATGASKGFISKVAAAVEAASLTPEKFLLLNDEDIQNRITPGR | -0.739
HMGRPTLEQLLDRAQAMGVPRERYAAYADRRWGRGWRVNPHGRGRAWDELDRYRNDPAGYLDKIEVELNQL | -0.341
HMGRQVTVPNVTGMLVEEARAAISEAELWVDSPRAVQGEVTRQEPARGERLSPGQEVRIYTES | 0.204
HMGRRSKAMLSSALDAVPGLGEMRRKALISQFGSLKKLRGATPEEIAAVPGIGPKLAAAVHEAVSG | -0.0903
HMGRSTQVPGVEKMTYSQAVQLLHDHGFRVDIRDSLYRDDIKPGHVIEQFPKAKSIVKPGRKIFLYINAV | -1.43
HMGRTGTVVVSPSLNVRTGPWGEIIGSLYNGNKVEIIGSSGDWYQISFGGKTAYVHSDYVVDGG | -1.26
HMGSDAFDISKLNLVGKTKESAESLLKENGFSVDTKEEASDTAAKGTVISYSPTKPKNGERVTLTVSSGK | 0.385
HMGSDQEAAMARQDRLSTLVDYVVERGSVHVDDIVADLGVSPATVRRDLDALAAQQLIIRTRGGATANHT | 0.034
HMGSGKGAAHTILGISADASDDEIKAAWRKLVQENHPDKLVSQGLPDEFVQAATDRLRLINTAYQSMLNRP | -0.0948
HMGSGLAAAEKIRKAHPEIKIVVATSLIDTQVLARAKAVGADSLWYKDGDEGTLMQVVRRTMAGDHIFP | -0.038
HMGSIGAMLSSPELYGKLATNPATRGFLSQPDFIAMLTDVQKNPDKFGSYMSDPRMMQVLSVALG | -0.231
HMGSIRDIIVQYLSKFDDPQPAAKIVEYVQQYRDTTESSIRSSMGSGDQFVQFSGGLYGLKDKTYAAWYSI | -0.916
HMGSLKISNPVKDTLWIQGVDGLKSIEIYSSTGQLVKTILGNQGDVSSLPKGVYFLKINTPSESLTAKIIK | -1.28
HMGSLPPPKDGTTIYVVKPGDSLWRISGKFFGNPLFWPRLWEINPNIDNPNKIYPGDVISLKP | 0.24
HMGSLVKLQSAAELHQAGRSAEAVPILLEVLATNPRLVDGWEILANALEKLGRLDEALAALKKTVALSPPG | -1.55
HMGSNENTIREYFDSLIASASKREIMDANPTMSQRTVERILQKLQAEGYVEKIGAARSTRYRRA | -0.0404
HMGSQLYTLEVEADEKISLIENNPLLIQKIYLKDNNLFSYKIASSSKTEIASIEKELEKNPSIKRLETA | -0.086
HMGSQQIEEGMRRLVASGALRPGASVPSVRDLARDLQVNPATVVRAYQRLVDAGLLVVRRGEGTFVAE | -1.77
HMGSSLLSPKEREVLQLLAGNLSNKQIALAMGVSDETIKWHLRNLFGKLNAGGRKHLIDRARMLGLLAAA | -1.61
HMGSVHDAATDRIREMILGGQFEPGERLRQDDLATSLGVSTMPVREALRQLQAEGLVVFYPRKGAVVAR | 0.168
HMGTAEDYLLPRRAEILSIIRDHEFANFDLIRRRFLAVNERTLRYDLKKLSDLGLIKKLGKTRGVYYRAAK | -1.84
